The values below come from the nanobody polyreactivity screen of Harvey et al. (2022).

This data set is described as follows: yeast display, Sf9 membrane polyspecificity reagent, FACS + sequencing; frameworks hold sequencing errors. In outline: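 Genes from sorted yeast were amplified by colony PCR, read by MiSeq 2 × 250 sequencing and filtered on CDR length. These cells carried a synthetic nanobody library in Saccharomyces cerevisiae BJ5465 and were sorted by FACS into low and high (top ~1%) gates on anti-HA and streptavidin fluorescence. Polyreactivity is labelled according to the gate of origin.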
Consider “QVQLVESGGGLDQAGGSLRLSCAASGSTFKWNAMGWYRQAPGKERELVAAISKGSVNTYYADSVKGRFTISRDNAKNTVYLQMNSLKPEDTAVYYCAADRRYPALDYWGQGTQVTVSS”, for which the “polyreactivity (PSR sort gate)” value is “high polyreactivity”.

“QGQLVESGGGLVQAGGSLRLSCAASGSTFLTNTMGWYRHAPGKERELVAAITLRGGRTYYADSVKGRFTISRDNAKNTVYVQMNSLKPEDTAVYYCTARNYYYTSDRDYWGQGTQVTVSS”: the “polyreactivity (PSR sort gate)” value is given as “low polyreactivity”.

Take “QVQLVESGGGLVQAGGSLRLSCAASGSTFDGNAMGWYRQAPGKERELVAAITSGGSTNYADSVKGRFTISRDNAKNTDYLQMNSLKPEDTAVYYCAADTVSFSILYDYWGQGTQVTVSS”: the “polyreactivity (PSR sort gate)” value is reported as “low polyreactivity”.

“QVQLVESGGGLDQAGGSLRLSCAASGFTFVDYDIGWYRQATGKERELVAAITYSGGSTSYADSVKGRFTISRDNSKTTFYLQMNSLKPEDTAVYYCAGEPVGEIMDYWGQGTQVTVSS”: the “polyreactivity (PSR sort gate)” value is given as “low polyreactivity”.

“QVQLVESGGGLVQAGGSLRLSCAASGFIFRFNALGWYRQAPGKERELVAAISGSGGITYYADSVKGRFTISRDNAKNTVYLQMNSLKPEDTAVYYCAAGTGKRSVRFDYWGQGTQVTVSS”: the “polyreactivity (PSR sort gate)” value is “high polyreactivity”.

For the sequence “QVQLVESGGGLVQAGGSLRLSCAASGIFFLYGMGWYIQAPGKQRELVAVISTRDTTDYADSVKGRFTISRDKSKNTVNIQMNSLKPEDTAVYFCAATARSRSYSWSKLNYWGQGTQVTLSS”, the “polyreactivity (PSR sort gate)” value is given as “low polyreactivity”.

As to “QVQLVESGGGLVQAGGSLRLCCAASGLIFRRYTMGWYRQAPGKERELVAAISWRVGRTYYADSVKGRFTISRDNAKNTVYLEMNSLKPEDTAVYYCAAILYQYDTPQVSSSRLDYWGQGTQVTVSS”, the “polyreactivity (PSR sort gate)” value is listed as “high polyreactivity”.

For the sequence “QVQLVESGGGLVQAGGSLRLSCAASGRIFIRNAMGWYRQAPGKERELVAAISRSGGRTYYADSVKGRFTISRDNAKNTVYLQMNSLKQEDTAVYYCARTTPYFNVDCGGYDYWGQGTQVTVSS”, the “polyreactivity (PSR sort gate)” value is recorded as “high polyreactivity”.

Take “QVQLVESGGGLVQAGGSLRLSCAASGGIFYFNAMGWYRQAPGKERELVASITWSGGNTYYADSVKGRFTISRDNAKNTVYLQMNSLKPEDTAVYDCAADTQEYRPTYDYWGQGTQVTVSS”: the “polyreactivity (PSR sort gate)” value is “low polyreactivity”.

In the case of “QVQLVESGGGLVQAGGSLRLSCAASGSTFWGNAMGWYRQAPGKERELVAAIDWSGGRTYYADSVKGRFTISRDNAKNTVYLQMNSLKPEDTAVYYCATRAWRGYGPYDYWGQGTQVTVSS”, the “polyreactivity (PSR sort gate)” value is reported as “high polyreactivity”.

As for “QVQLVESGGGLVQAGGSLRISCAASGFTFYYNAMGCYRQAPVKERELVAIRFRGGNTYYAYSVKGRFTISRDNAKITVYLQMNSLKPEDTAVYYCTADDRGSTYVYFDYWGQGTQVTVSS”, the “polyreactivity (PSR sort gate)” value is listed as “low polyreactivity”.

For the sequence “QVQHVESGGGIVQAGGSLRLSCAASGRIFDSNAMGWYRQAPGKERELVAAITTSGGSTFYADSVKGRFTISRDNAKNTVYLQMNSLKPEDTAVYYCAAGYSYYYHAIFPFDYWGQGTQVTVSS”, the “polyreactivity (PSR sort gate)” value is listed as “high polyreactivity”.

“QVQLVESGGGLVHAGGSHRLSCAASGIIVYVNAMGLYRQAPGKERELVSAITFGGDSTYYADSVKGRFTISRDTAKNTVYLQMNSLKPEDTAVYFCATDGDPAYPELEYWGQGTQVTVSS”: the “polyreactivity (PSR sort gate)” value is listed as “low polyreactivity”.

“QVQLVESGGGLVQAGGSLRLSAATGSTLAGKTMGWYRQASRKERELVAAINDSGGSTYYADSVKGRFTISRDNAKNSVYLQMNSLKPEDTAVYYCNADGYAYIEDGYDYWGQCTQVTVSS”: the “polyreactivity (PSR sort gate)” value is on record as “low polyreactivity”.

“QVQLVESGGGLVQAGCSLRLSCDASGSIYKYYSMGWYRQAPGKERELVAAISKNGGSTYYADSVKGRFTISRDNAKYTVYLQMNSLKPEDTAVYYCAAEEGYRWVRYNYWGQGTQVTVSS”: the “polyreactivity (PSR sort gate)” value was “high polyreactivity”.

With “QDQLVESGGGLDQEGGSLRLSCAASGIFSYEAMGWNRQAPGKERELVATISRRGSSTYYADSVKGRFTISRDNAKNTVYLQMNSLKPEDSAVYYCAAVRYISPAFLPASSYELGYWGQGSQVTVSS”, the “polyreactivity (PSR sort gate)” value is listed as “low polyreactivity”.

For the sequence “QVQLVESGGGLVQAGGSLRLSCAASVSTFVVNAMGWYRQAPGKERELVAAISRSDAITYYADSVKGRFTISRDNAKNTVYLQMNSLKPEDTAVYYCAAELSYRGYPYDYWGQGTQVTVSS”, the “polyreactivity (PSR sort gate)” value is “high polyreactivity”.

Consider “QVQLVESGGGLVQAGGSLRLSCAASGFTFYRNAMGWYRQAPGKEWELVAGITRSGGSTYYADSVKGRFTISRDNAKNTVYLQMNSLKPEDTAVYYCNKAYGGDKYSGTYDYWGQGTQVTVSS”, for which the “polyreactivity (PSR sort gate)” value is listed as “high polyreactivity”.

For the sequence “QVQLVESGGGLVQAGGSLRLSCAASGFIFRGYAMGWYRQAPGKERELVAAITSSGGDTYYADSVKGRFTISRDNAKNTVYLQMNSLKPEDSAVYYCAKRARRIGDVNMGSWGQGSQVTVSS”, the “polyreactivity (PSR sort gate)” value was “low polyreactivity”.

Regarding “QVQLVDSGGGLVQAGGSLRLSCAASGSTFKIYAMGWYRQAPGKERELVARITGRGGSTYYADSVKGRFTISRDNAKNTVYLQMNSLKPEDTAVYYCAAAKRYYSEMYWGQGTQVTVSS”, the “polyreactivity (PSR sort gate)” value is listed as “high polyreactivity”.

Turning to “QVQLVESGGGLVQAGGSLRLSCAASGSIFYRYAMGWYRQGPGKERELVAGITRGGSTNYADSVKGRFTISRDNAMNTVYLQMNSLKPEDTAVYYCAARSYVYVHYYYWGQGTQVTVSS”, the “polyreactivity (PSR sort gate)” value was “high polyreactivity”.

For the sequence “QDQLVESGGGLVQAGGSLRLRCAASGLILANYAMGCYRPAPVKERELVAAISSSGGSKYYADSVKGRFTISRDNAKHTVYFQMNSLKPEDTAVYDCAAYPLYRRRWTGDYWGQGTQVTVSS”, the “polyreactivity (PSR sort gate)” value is on record as “high polyreactivity”.

In the case of “QVQLVESGGGLVQAGGTLRLSCAASGFTFRYYAMGWYRQAPGKERELVAAISRGGTTNYADSVKGRFTISRDNAKNTVYLQMNSLKPEDTAVYYCAARQYYSRVTYDYWGQGTQVTVSS”, the “polyreactivity (PSR sort gate)” value is recorded as “high polyreactivity”.

For the sequence “QVQLVESGGGLVQAGGSLRLSCAASGRTFAWKAMGWYRQAPGKERELVAAMSSRGTSTYYADSVKGRFTISRDNAKKTVYLQMNSLKPEDTAVYYCAKYTNPASGEYGYWGQGTQVTVSS”, the “polyreactivity (PSR sort gate)” value is recorded as “high polyreactivity”.

Take “QVQLVESGGGLVQAGGSLRLSCAASGLTFPYYVMGWYRQAPGKERELVAAIDDGGGSTYYADSVKGRFTISRDNAKNTVYLQMNSLKPEDTAVYYCAAQVDYLAHYGYWGQGTQVTVSS”: the “polyreactivity (PSR sort gate)” value is “low polyreactivity”.

Take “QVQRVESGGGLVQAGGSLRLSCADSGGTFGSYAKGCSSQAPGQDRELVDAIDYSGADTYYADSVKGRFTISRDNAKNTVYLQMNSLKREDTAVFSCNADPLPYDGFYDYDYWGQGTQVTVSS”: the “polyreactivity (PSR sort gate)” value is given as “low polyreactivity”.

In the case of “QVQLVESGGGLVQAGGSLRLSCAASGRIFFSNAMGWYRQAQGKEREMVASITGGDDTNYADSVKGRFTISRDNAKNTVYLQMNSLKPEDTAVYYCAARAIPSYRWFYRFAPKYDYWGQGTQVTVSS”, the “polyreactivity (PSR sort gate)” value is recorded as “low polyreactivity”.

Turning to “QVQLVESGGGLVQAGGSLRLSCAASGRTFYSNAMGWYRQAPGKERELVAAITSTDDSTYYADSVKGRFTISRDNAKNTVNLQMYSLKPEYTAVYYCNTDGLIAIRGLWWFEFDYWGQGTQVTVSS”, the “polyreactivity (PSR sort gate)” value is recorded as “low polyreactivity”.

On to “QVQLVESGGGLVQSGGSLRLSCAASGGSFTFYAMGWYRQAPGKERELVATINWSGGSTYYADSVKGRFTISRDNAKNTVYLQMNSLKPEDTAVYYCNAAWPYKSVEYWGQGTQVTVSS”, for which the “polyreactivity (PSR sort gate)” value was “low polyreactivity”.

Take “QVQLVESGGGLVQAGGSLRLSCAASGFIFGYYAMGWYRQAPGKERELVAAINKNGGSTYYADSVKGRFTISRDNAKNTVYLQMNSLKPEVTAVYYCAARARGYAWTYDYWGQGTQVTVSS”: the “polyreactivity (PSR sort gate)” value is on record as “high polyreactivity”.

Take “QVQLVESGGGLVQAGGSLRLSCAASGIIFYSSAMGWYRTAPGKERELVAAISWGGRTYYADSVKGRFTISRDNAKNTVYLQMNSLKPEDTAVYYCLNGRYWRRYDYWGQGTQVTVSS”: the “polyreactivity (PSR sort gate)” value is listed as “high polyreactivity”.

In the case of “QVQLVESGGGLLQAGGSLRLSCAASGRTFRYYTMGWYRQAPGKEREFVAAISSTGRTYYGDSVKGRFTISRDNAKNTVYLQMNSLKPEDTAVYYCAATFIQVVVNVQLYDYDYWGQGTQVTVSS”, the “polyreactivity (PSR sort gate)” value is “low polyreactivity”.

Regarding “QVQLVESGGGLVQAGGSLRLSCAASGSIFVGYAMGWYRQAPGKERELVAAITGSGTRTYYADSVKGRFTISRDNAKNTVYLQMNSLKPEDTAVYYCAAPLSYKNVKYDYWGQGTQVTVSS”, the “polyreactivity (PSR sort gate)” value is reported as “low polyreactivity”.

Take “QVQLVDSGGGLVQAGGSLRLSCAASGRIFHCYAMGWYRQAPGKERELVAAIRASGGRTYYADSVKGRFTISRDNAKNTVYLQMNSLKPEDTAVYYCAADSVKYGGDYWGQGTQVTVSS”: the “polyreactivity (PSR sort gate)” value is listed as “high polyreactivity”.

For “QVQLVESGGGLVQAGGSLRLSCAASGRTFDLYAMGWYRQAPGKERELVAAITKGGGSTYYADSVKGRFTLSRDNAKNTVYLQMHSLKPVDTAVYYCAARKYKRIYRISSGIGYYWGQGTQVTVSS”, the “polyreactivity (PSR sort gate)” value is recorded as “high polyreactivity”.

With “QVQLVESGGGLVQAGGSLRLSCAASGIIYHFNDMGWYRQAPGQERELVASIDSTGSTNYADSVKGRFTLSRDNAKNTVYLQMNSLKPEDTAVYYCAVLNHRVDSVLTRYYYWGQGTQVTVSS”, the “polyreactivity (PSR sort gate)” value was “low polyreactivity”.

For “QVKLVETGGGLVQAGGSLRLSCAASGSTFGLYAMGWYRQAPGKERELVAAITWRGGRTYYADSVKGRFTISRDNAKNTVDLQMNSLKPEDTAVNFCAKGYDYYVRRYYYWGQGTQVTVSS”, the “polyreactivity (PSR sort gate)” value is given as “high polyreactivity”.

Consider “QVQLVESGGGLVQAGGSIRLSCAASGRTFVPYVMGWYIQAPGKERELVATINWSGGSTYYADSVKGRFSISRDNAKNTVYLQMNSLKPEDTADYYCDARYYSDWFYYLFRYDYWGQGTQVTVSS”, for which the “polyreactivity (PSR sort gate)” value is on record as “low polyreactivity”.

With “QVQLVESGGGLVQAGGSLRLSCAASGRIFTYNAMGWYRQAPGKERELVAVITSGGSTYYADSVKGRFTISRDNAKNTVYLQMNSLKPEDTAVYYCAARVWGSSQYYYWGQGTQVTVSS”, the “polyreactivity (PSR sort gate)” value is “low polyreactivity”.

Consider “QVHLVESGGGLVQAGGSLRITCAASGRIFWSYAMGWYRQAPGKEMELVAAITWSGGSTYYADSVKGRFTISRDNAKNTVYLQMIRLKPEDTAVYYCNAATGQPVGLDYWGQGTQVTVSS”, for which the “polyreactivity (PSR sort gate)” value was “low polyreactivity”.

“QVQLVESGGGLVQAGGSLRLSCAASGLTFVYNDMGWYRQAPGKERELVAGITSGGSTYYADSVKGRFTISRDNAKNTVYLQMNSLKPEDTAVYYCAADGLSTDLFRPDSIVDYWGQGTQVTVSS”: the “polyreactivity (PSR sort gate)” value was “low polyreactivity”.
